Measurements: US20140294828A1 (COMPLIX, published 2014)

T1: bL4_C36 (biotin-GSGS-C36-NH2, HIV-1 HXB2 Env gp41 HR2 peptide) (HIV-1 (HXB2 strain), N-terminal biotin; C-terminal amide)
T1 construct: also called C-peptide
T1 peptide: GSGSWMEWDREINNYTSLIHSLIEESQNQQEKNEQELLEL


Experiments:
[1] = target: T1, bL4_C36 (biotin-GSGS-C36-NH2, HIV-1 …); test: SPR, bL4_C36 immobilized on a streptavidin sensor chip, Alphabody injected at 250 to 7.8 nM, Langmuir model (phase 1)
[2] = target: T1, bL4_C36 (biotin-GSGS-C36-NH2, HIV-1 …); test: SPR, bL4_C36 on streptavidin chip, Langmuir model
[3] = target: T1, bL4_C36 (biotin-GSGS-C36-NH2, HIV-1 …); test: ELISA, bL4_C36 immobilized on neutravidin-coated plates, detection with Penta-His-HRP antibody, A450nm
[4] = target: T1, bL4_C36 (biotin-GSGS-C36-NH2, HIV-1 …); test: ELISA, peptide on neutravidin-coated plate, Penta-His-HRP detection
[5] = target: T1, bL4_C36 (biotin-GSGS-C36-NH2, HIV-1 …); test: SPR, two-step model, second phase
[6] = target: T1, bL4_C36 (biotin-GSGS-C36-NH2, HIV-1 …); test: SPR, bL4_C36 immobilized on a streptavidin sensor chip, two-step kinetic binding model, phase 1
[7] = target: T1, bL4_C36 (biotin-GSGS-C36-NH2, HIV-1 …); test: SPR, two-step model, first fast association phase
[8] = target: T1, bL4_C36 (biotin-GSGS-C36-NH2, HIV-1 …); test: SPR, bL4_C36 immobilized on a streptavidin sensor chip, two-step kinetic binding model, global constant of phases 1+2 (KD1*KD2)
[9] = target: T1, bL4_C36 (biotin-GSGS-C36-NH2, HIV-1 …); test: SPR, two-step model, global KD
[10] = target: T1, bL4_C36 (biotin-GSGS-C36-NH2, HIV-1 …); test: SPR, bL4_C36 immobilized on a streptavidin sensor chip, two-step kinetic binding model, phase 2 (dimensionless)
[11] = target: T1, bL4_C36 (biotin-GSGS-C36-NH2, HIV-1 …); test: SPR, bL4_C36 on streptavidin chip; disulfide dimer, bidentate binding

Row | Binder | Kd [1] [nM] | koff [1] [s⁻¹] | kon [1] [M⁻¹ s⁻¹] | Kd [2] [nM] | EC50 (read off the curve) [3] [nM] | other results
1 | single-chain Alphabody scAB_Env04 (designed binder, Soluble construct with N-terminal His10 tag (pET16b)) MGHHHHHHHHHHSSGHIEGRHMSIEEIQKPIATIQETIAWIQKTIYGMTGGSGGGSGMSIEEIQKQIAAIQKQIAAIQKQIYAMTGGSGGGSGGGSGGGSGMSIEEIQKQIRAIFEQIVAICKQIIAMTP | 167 | 0.1 | 570000 | 200 | ~20 | –
2 | single-chain Alphabody scAB_Env03 (designed binder, expressed soluble in E. coli with an N-terminal His10 tag; not shown: N-terminal 10-histidine tag from pET16b) MGHHHHHHHHHHSSGHIEGRHMSIEEIQKPIATIQEAIAWIQKKIYMMTGGSGGGSGGGSGGGSGMSIEEIQKQIAAIQKQIAAIQKQIYAMTGGSGGGSGGGSGGGSGMSIEEIQKQIVAIMEQIVAIVKQISAMTP | 211 | – | – | 200 | ~5 | EC50 [4]: ~6 nM
3 | single-chain Alphabody scAB_Env02 (designed binder, Soluble construct with N-terminal His10 tag (pET16b)) MGHHHHHHHHHHSSGHIEGRHMSIEEIQKPIASIQELIATIQKYIYIMTGGSGGGSGGGSGGGSGMSIEEIQKQIAAIQKQIAAIQKQIYAMTGGSGGGSGGGSGGGSGMSIEEIQKQIQAITEQIIAISKQIIAMTP | – | – | – | – | ~20 | –
4 | single-chain Alphabody scAB_Env03_PA (designed binder, Made by the same protocol as the parent (N-terminal His10 tag); The substitution has no printed number) MGHHHHHHHHHHSSGHIEGRHMSIEEIQKAIATIQEAIAWIQKKIYMMTGGSGGGSGGGSGGGSGMSIEEIQKQIAAIQKQIAAIQKQIYAMTGGSGGGSGGGSGGGSGMSIEEIQKQIVAIMEQIVAIVKQISAMTP | – | – | – | – | – | koff [5]: ~0.0001 s⁻¹; KD (phase 1) [6]: 558 nM; kon [7]: ~100000 M⁻¹ s⁻¹; Kd [8]: 13 nM; Kd [9]: ~10 nM; KD (phase 2) [10]: 0.024 (-)
5 | single-chain Alphabody scAB_Env05 (designed binder, Soluble construct with N-terminal His10 tag (pET16b)) MGHHHHHHHHHHSSGHIEGRHMSIEEIQKHIASIQEYIAWIQKEIYRMTGGSGGGSGGGSGGGSGMSIEEIQKQIAAIQKQIAAIQKQIYAMTGGSGGGSGGGSGGGSGMSIEEIQKQILAIMEQIYAIVKQINAMTP | 3930 | 0.32 | 81000 | 4000 | ~40 | –
6 | single-chain Alphabody scAB_Env03_KC (designed binder, Interchain disulfide between Cys80 of chain 1 and Cys80 of chain 2 (homodimer; paragraph 268, and FIG.11 prints 'scAB_Env03_KC (dimer)')., also called Env03 Cys-mutant) MGHHHHHHHHHHSSGHIEGRHMSIEEIQKPIATIQEAIAWIQKKIYMMTGGSGGGSGGGSGGGSGMSIEEIQKQIAAIQCQIAAIQKQIYAMTGGSGGGSGGGSGGGSGMSIEEIQKQIVAIMEQIVAIVKQISAMTP | – | – | – | – | – | Kd [11]: 0.62 nM; koff [11]: 2.4e-05 s⁻¹; kon [11]: 38000 M⁻¹ s⁻¹
